Data on one molecule can be found in paper PMC2930062 (Journal of cellular biochemistry, 2010).

The target of the experiment is T1, RANBP17^1-252, GAL4 DNA binding domain fusion (pM) (human (cDNA library of DU145 cells), UniProt Q9H2T7 1-252).
T1 sequence (looked up): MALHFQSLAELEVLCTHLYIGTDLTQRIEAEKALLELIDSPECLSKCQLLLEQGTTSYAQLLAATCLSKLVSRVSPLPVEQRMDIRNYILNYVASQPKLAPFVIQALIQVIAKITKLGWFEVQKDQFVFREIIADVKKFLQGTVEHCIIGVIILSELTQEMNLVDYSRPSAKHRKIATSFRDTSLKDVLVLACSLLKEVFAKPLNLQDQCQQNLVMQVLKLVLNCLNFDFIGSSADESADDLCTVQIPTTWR
Briefly: two-hybrid.

B1: E12^508-654, VP16 activation domain fusion (pVP16) (domain or fragment, human, UniProt P15923 508-654, looked up)
chain: TSAADHSEEEKKELKAPRARTSPDEDEDDLLPPEQKAEREKERRVANNARERLRVRDINEAFKELGRMCQLHLNSEKPQTKLLILHQAVSVILNLEQQVRERNLNPKAACLKRREEEKVSGVVGDPQMVLSAPHPGLSEAHNPAGHM
On to B1, for which the “fold increase in luciferase activity against empty vector transfectants” value came to 5.7 fold.
